Measurements reported in patent US20170056486A1.

Each binder was assayed against HLA-A*24 (human) (assay: UV-exchange ELISA (anti-b2m); yield 50%-75%).

| Binder | peptide exchange yield |
| --- | --- |
| IYVTGGHLF | 50 to 75% |
| VYFEGSDFKF | 50 to 75% |
| SYLPAIWLL | 50 to 75% |
| EYQEIFQQL | 50 to 75% |
| IYLEHTESI | 50 to 75% |
| TYPSQLPSL | 50 to 75% |
| NYLVDPVTI | 50 to 75% |
| QYGGDLTNTF | 50 to 75% |
| YYFFVQEKI | 50 to 75% |
| SYLVIHERI | 50 to 75% |
| IYAPTLLVF | 50 to 75% |
| VYTHEVVTL | 50 to 75% |
| VYLPKIPSW | 50 to 75% |
| VHFEDTGKTLLF | 50 to 75% |
| VFGKSAYLF | 50 to 75% |
| KYVGQLAVL | 50 to 75% |
| RYFKGDYSI | 50 to 75% |
| YYLGSGRETF | 50 to 75% |
| VFSPDGHLF | 50 to 75% |
| KYQYVLNEF | 50 to 75% |
| AYAQLGYLL | 50 to 75% |
| TFDGHGVFF | 50 to 75% |
| YYSQESKVLYL | 50 to 75% |

| Binder | peptide exchange yield |
| --- | --- |
| EYNSDLHQFF | 50 to 75% |
| SYVKVLHHL | 50 to 75% |
| NYLGGTSTI | 50 to 75% |
| QYPYLQAFF | 50 to 75% |
| VYGEPRELL | 50 to 75% |
| TYADIGGLDNQI | 50 to 75% |
| YYSEVPVKL | 50 to 75% |
| QYSIISNVF | 50 to 75% |
| TYSNSAFQYF | 50 to 75% |
| VYQKIILKF | 50 to 75% |
| NYSPGLVSLIL | 50 to 75% |
| VYVGDALLHAI | 50 to 75% |
| IYGEKLQFIF | 50 to 75% |
| VYNEQIRDLL | 50 to 75% |
| VYAIFRILL | 50 to 75% |
| VYKDSIYYI | 50 to 75% |
| SYTSVLSRL | 50 to 75% |
| TYGKIDLGF | 50 to 75% |
| KYTDYILKI | 50 to 75% |
| VYTKALSSL | 50 to 75% |
| LYLPVHYGF | 50 to 75% |
| VYAEVNSL | 50 to 75% |

The remaining lines, values ahead:

| peptide exchange yield | Binder |
| --- | --- |
| 50 to 75% | VWLPASVLF |
| 50 to 75% | KYGNFIDKL |
| 50 to 75% | SFTKTSPNF |
| 50 to 75% | NYAFLHRTL |
| 50 to 75% | RFPVQGTVTF |
| 50 to 75% | KYTDWTEFL |
| 50 to 75% | EYNSDLHQF |
| 50 to 75% | KYLESSATF |
| 50 to 75% | RYILENHDF |
| 50 to 75% | VYPAEQPQI |
| 50 to 75% | FYTFPFQQL |
| 50 to 75% | SYLTQHQRI |
| 50 to 75% | GYISNGELF |
| 50 to 75% | KYQNVKHNL |
| 50 to 75% | IFHEVPLKF |
| 50 to 75% | RFIGIPNQF |
| 50 to 75% | IYNPNLLTASKF |
| 50 to 75% | VYVIEPHSMEF |
| 50 to 75% | VFDTSIAQLF |
| 50 to 75% | GYAFTLPLF |
| 50 to 75% | IFIDNSTQPLHF |
| 50 to 75% | SYLELANTL |
| 50 to 75% | QYLELAHSL |
| 50 to 75% | LYPQLFVVL |
| 50 to 75% | LYSVIKEDF |
| 50 to 75% | EYNEVANLF |
| 50 to 75% | IYGFFNENF |
| 50 to 75% | KYLNENQLSQL |
| 50 to 75% | FYIPHVPVSF |
| 50 to 75% | DYLKDPVTI |
